Assay results as given in patent publication US7214517B2, “α1,2-fucosyltransferase and DNA encoding the same” (Kyowa Hakko Kogyo Co., Ltd., priority 2001, dated 2007).

Tests used:
[1] = Production of fucose-containing carbohydrate from different acceptor carbohydrates, wet cells as enzyme source (Example 7); assay type: biochemical; conditions: conclusion from Table 1
Experimental: (§1) Escherichia coli DH5α/pHMFT80 obtained in Example 5 was inoculated on 8 ml of LB medium [containing 10 g/l bacto tryptone (manufactured by Difco), 10 g/l yeast extract (manufactured by Difco) and 5 g/l NaCl] containing 50 μg/ml ampicillin in a test tube, and cultured at 30° C. for 12 hours. The culture was inoculated into 8 ml of LB medium containing 50 μg/ml ampicillin, with an inoculum size of 5%, and cultured at 30° C. for 2 hours. Then, isopropyl-β-D-thiogalactopyranoside was added thereto at a final concentration of 1 mmol/l, and further cultured at 30° C. for 8 hours. Wet cells were obtained by centrifuging 1 ml of the culture. Since the wet cells can be stored at −20° C., if necessary, it was able to use them by thawing-prior to use.
(§2) The reaction was carried out at 32° C. for 9 hours in 0.1 ml of a reaction solution composed of the wet cells of Escherichia coli DH5α/pHMFT80 prepared from 1 ml of the culture, 50 mmol/l of a citrate buffer (pH 7.0), 10 mmol/l MnCl2, 10 mmol/l lactose, 10 mmol/l GDP-fucose and 4 g/l Nymeen S-215.
• Column: CarboPAC PA10 • Eluent:. A; H2O, B; 500 mmol/l NaOH • Gradient: Concentration of the eluent B at 0 minute is adjusted to 8% and increased to 20% spending 21 minutes. • Detector: Pulsed amperometry detector
Escherichia coli DH5α/pHMFT80 and Escherichia coli DH5α/pHPFT80 respectively obtained in. […]

[2] = Production of fucosyllactose in the presence or absence of GDP (feedback inhibition, Example 8); assay type: biochemical; conditions: conclusion from Table 2
Experimental: as §1, §2
Fucosyllactose was produced in a similar manner described in Example 7 in the presence or absence of 5 mmol/l guanosine 5′-diphosphate (GDP) using lactose as an acceptor carbohydrate.

B1: Helicobacter mustelae-derived α1,2-fucosyltransferase: Protein comprising the amino acid sequence of SEQ ID NO:1, from Helicobacter mustelae ATCC 43772 (protein, listed as Helicobacter mustelae)
chain: MDFKIVQVHGGLGNQMFQYAFAKSLQTHLNIPVLLDTTWFDYGNRELGLHLFPIDLQCASAQQIAAAHMQNLPRLVRGALRRMGLGRVSKEIVFEYMPELFEPSRIAYFHGYFQDPRYFEDISPLIKQTFTLPHPTEHAEQYSRKLSQILAAKNSVFVHIRRGDYMRLGWQLDISYQLRAIAYMAKRVQNLELFLFCEDLEFVQNLDLGYPFVDMTTRDGAAHWDMMLMQSCKHGIITNSTYSWWAAYLIKNPEKIIIGPSHWIYGNENILCKDWVKIESQFETKS
activity compared to Helicobacter pylori-derived α1,2-fucosyltransferase [1]: higher activity
substrate specificity compared to Helicobacter pylori-derived α1,2-fucosyltransferase [1]: higher substrate specificity to lactose
sensitivity to feedback inhibition by GDP compared to Helicobacter pylori-derived α1,2-fucosyltransferase [2]: more insensitive to feedback inhibition by GDP
